In patent US20140087995A1 (published 2014):
Each block holds one binder with its values, some of them ahead of it. Numbered stars: 1 amine (or outer) side, 2 acyl side, 3 side chain; on linkers, the order of the positions; unused ones are H or OH. Bridge positions count the residues as written; N and C are the ends. Side chains are listed from the residue outwards. Ends that are not written are not given here. * marks the point of attachment. C20 diacid = O=C(O)CCCCCCCCCCCCCCCCCCC(=O)*; γGlu = O=C(O)[C@H](CCC(=O)[*:2])N[*:1]

Assays:
[1] = biological target: T1, human amylin 3(a) receptor (human calcitonin receptor co-expressed with RAMP-3) (human, UniProt P30988 25-474; O60896 24-148, limits assumed); experiment: cell-based or functional assay
T1 sequence (looked up) 1: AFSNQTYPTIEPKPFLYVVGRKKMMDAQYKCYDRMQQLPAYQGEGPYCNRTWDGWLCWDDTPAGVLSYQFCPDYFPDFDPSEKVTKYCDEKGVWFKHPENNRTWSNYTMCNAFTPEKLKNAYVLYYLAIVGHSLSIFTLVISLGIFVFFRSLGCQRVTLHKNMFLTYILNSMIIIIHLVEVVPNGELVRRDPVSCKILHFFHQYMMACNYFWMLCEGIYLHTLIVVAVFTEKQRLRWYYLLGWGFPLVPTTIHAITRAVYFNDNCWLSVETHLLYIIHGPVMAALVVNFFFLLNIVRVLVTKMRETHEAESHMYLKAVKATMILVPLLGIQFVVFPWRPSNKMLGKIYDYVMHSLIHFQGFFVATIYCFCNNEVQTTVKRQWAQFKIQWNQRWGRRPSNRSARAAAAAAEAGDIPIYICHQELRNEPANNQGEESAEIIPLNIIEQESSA
T1 sequence (looked up) 2: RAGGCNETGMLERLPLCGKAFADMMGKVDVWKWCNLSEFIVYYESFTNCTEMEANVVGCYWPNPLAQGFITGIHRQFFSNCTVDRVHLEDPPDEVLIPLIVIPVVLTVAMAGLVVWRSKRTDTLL

[2] = biological target: T2, human calcitonin receptor (human, UniProt P30988 25-474); experiment: cell-based or functional assay
T2 sequence (looked up): T1 sequence (looked up) 1

hAmylin-R funct. EC50 [1]: 0.278 nM
Ratio hCT/hAmylin funct. [2]: 29.3
hCTR funct. EC50 [2]: 8.16 nM
B3: N^ε1-[(4S)-4-carboxy-4-[[(4S)-4-carboxy-4-(19-carboxynonadecanoylamino)butanoyl]amino]butanoyl]-[Glu14,Arg17,Pro21,Pro27,Pro34,Arg35]-h-amylin (peptide)
peptide: K([γGlu-γGlu-C20 diacid])CNTATCATQRLAEFLRHSSPNFGAIPSSTNVGPRTY-NH2
modifications: disulfide 2-7; N-terminus assumed
SMILES: CC[C@H](C)[C@H](NC(=O)[C@H](C)NC(=O)CNC(=O)[C@H](Cc1ccccc1)NC(=O)[C@H](CC(N)=O)NC(=O)[C@@H]1CCCN1C(=O)[C@H](CO)NC(=O)[C@H](CO)NC(=O)[C@H](Cc1c[nH]cn1)NC(=O)[C@H](CCCNC(=N)N)NC(=O)[C@H](CC(C)C)NC(=O)[C@H](Cc1ccccc1)NC(=O)[C@H](CCC(=O)O)NC(=O)[C@H](C)NC(=O)[C@H](CC(C)C)NC(=O)[C@H](CCCNC(=N)N)NC(=O)[C@H](CCC(N)=O)NC(=O)[C@@H](NC(=O)[C@H](C)NC(=O)[C@@H]1CSSC[C@H](NC(=O)[C@@H](N)CCCCNC(=O)CC[C@H](NC(=O)CC[C@H](NC(=O)CCCCCCCCCCCCCCCCCCC(=O)O)C(=O)O)C(=O)O)C(=O)N[C@@H](CC(N)=O)C(=O)N[C@@H]([C@@H](C)O)C(=O)N[C@@H](C)C(=O)N[C@@H]([C@@H](C)O)C(=O)N1)[C@@H](C)O)C(=O)N1CCC[C@H]1C(=O)N[C@@H](CO)C(=O)N[C@@H](CO)C(=O)N[C@H](C(=O)N[C@@H](CC(N)=O)C(=O)N[C@H](C(=O)NCC(=O)N1CCC[C@H]1C(=O)N[C@@H](CCCNC(=N)N)C(=O)N[C@H](C(=O)N[C@@H](Cc1ccc(O)cc1)C(N)=O)[C@@H](C)O)C(C)C)[C@@H](C)O
notes: also called compound 110

hAmylin-R funct. EC50 [1]: 0.445 nM
Ratio hCT/hAmylin funct. [2]: 15.8
hCTR funct. EC50 [2]: 7.05 nM
B4: N^ε1-[(4S)-4-carboxy-4-[[(4S)-4-carboxy-4-(19-carboxynonadecanoylamino)butanoyl]amino]butanoyl]-[Glu14,Arg17,Pro21,Pro27,His34,Glu35]-h-amylin (peptide)
peptide: K([γGlu-γGlu-C20 diacid])CNTATCATQRLAEFLRHSSPNFGAIPSSTNVGHETY-NH2
modifications: disulfide 2-7; N-terminus assumed
SMILES: CC[C@H](C)[C@H](NC(=O)[C@H](C)NC(=O)CNC(=O)[C@H](Cc1ccccc1)NC(=O)[C@H](CC(N)=O)NC(=O)[C@@H]1CCCN1C(=O)[C@H](CO)NC(=O)[C@H](CO)NC(=O)[C@H](Cc1c[nH]cn1)NC(=O)[C@H](CCCNC(=N)N)NC(=O)[C@H](CC(C)C)NC(=O)[C@H](Cc1ccccc1)NC(=O)[C@H](CCC(=O)O)NC(=O)[C@H](C)NC(=O)[C@H](CC(C)C)NC(=O)[C@H](CCCNC(=N)N)NC(=O)[C@H](CCC(N)=O)NC(=O)[C@@H](NC(=O)[C@H](C)NC(=O)[C@@H]1CSSC[C@H](NC(=O)[C@@H](N)CCCCNC(=O)CC[C@H](NC(=O)CC[C@H](NC(=O)CCCCCCCCCCCCCCCCCCC(=O)O)C(=O)O)C(=O)O)C(=O)N[C@@H](CC(N)=O)C(=O)N[C@@H]([C@@H](C)O)C(=O)N[C@@H](C)C(=O)N[C@@H]([C@@H](C)O)C(=O)N1)[C@@H](C)O)C(=O)N1CCC[C@H]1C(=O)N[C@@H](CO)C(=O)N[C@@H](CO)C(=O)N[C@H](C(=O)N[C@@H](CC(N)=O)C(=O)N[C@H](C(=O)NCC(=O)N[C@@H](Cc1c[nH]cn1)C(=O)N[C@@H](CCC(=O)O)C(=O)N[C@H](C(=O)N[C@@H](Cc1ccc(O)cc1)C(N)=O)[C@@H](C)O)C(C)C)[C@@H](C)O

hAmylin-R funct. EC50 [1]: 0.404 nM
Ratio hCT/hAmylin funct. [2]: 27.8
hCTR funct. EC50 [2]: 11.2 nM
B5: N^ε1-[(4S)-4-carboxy-4-[[(4S)-4-carboxy-4-(19-carboxynonadecanoylamino)butanoyl]amino]butanoyl]-[Glu14,Arg17,Pro21,Pro27,Arg35]-h-amylin (peptide)
peptide: K([γGlu-γGlu-C20 diacid])CNTATCATQRLAEFLRHSSPNFGAIPSSTNVGSRTY-NH2
modifications: disulfide 2-7; N-terminus assumed
SMILES: CC[C@H](C)[C@H](NC(=O)[C@H](C)NC(=O)CNC(=O)[C@H](Cc1ccccc1)NC(=O)[C@H](CC(N)=O)NC(=O)[C@@H]1CCCN1C(=O)[C@H](CO)NC(=O)[C@H](CO)NC(=O)[C@H](Cc1c[nH]cn1)NC(=O)[C@H](CCCNC(=N)N)NC(=O)[C@H](CC(C)C)NC(=O)[C@H](Cc1ccccc1)NC(=O)[C@H](CCC(=O)O)NC(=O)[C@H](C)NC(=O)[C@H](CC(C)C)NC(=O)[C@H](CCCNC(=N)N)NC(=O)[C@H](CCC(N)=O)NC(=O)[C@@H](NC(=O)[C@H](C)NC(=O)[C@@H]1CSSC[C@H](NC(=O)[C@@H](N)CCCCNC(=O)CC[C@H](NC(=O)CC[C@H](NC(=O)CCCCCCCCCCCCCCCCCCC(=O)O)C(=O)O)C(=O)O)C(=O)N[C@@H](CC(N)=O)C(=O)N[C@@H]([C@@H](C)O)C(=O)N[C@@H](C)C(=O)N[C@@H]([C@@H](C)O)C(=O)N1)[C@@H](C)O)C(=O)N1CCC[C@H]1C(=O)N[C@@H](CO)C(=O)N[C@@H](CO)C(=O)N[C@H](C(=O)N[C@@H](CC(N)=O)C(=O)N[C@H](C(=O)NCC(=O)N[C@@H](CO)C(=O)N[C@@H](CCCNC(=N)N)C(=O)N[C@H](C(=O)N[C@@H](Cc1ccc(O)cc1)C(N)=O)[C@@H](C)O)C(C)C)[C@@H](C)O
notes: also called compound 89

The remaining lines, values behind:

B1: N^ε1-[(4S)-4-carboxy-4-(19-carboxynonadecanoylamino)butanoyl]-[His14,Arg17,Pro21,Pro27,Pro31,Pro34]-h-amylin (peptide)
peptide: K([γGlu-C20 diacid])CNTATCATQRLAHFLRHSSPNFGAIPSSTPVGPNTY-NH2
modifications: disulfide 2-7; N-terminus assumed
SMILES: CC[C@H](C)[C@H](NC(=O)[C@H](C)NC(=O)CNC(=O)[C@H](Cc1ccccc1)NC(=O)[C@H](CC(N)=O)NC(=O)[C@@H]1CCCN1C(=O)[C@H](CO)NC(=O)[C@H](CO)NC(=O)[C@H](Cc1c[nH]cn1)NC(=O)[C@H](CCCNC(=N)N)NC(=O)[C@H](CC(C)C)NC(=O)[C@H](Cc1ccccc1)NC(=O)[C@H](Cc1c[nH]cn1)NC(=O)[C@H](C)NC(=O)[C@H](CC(C)C)NC(=O)[C@H](CCCNC(=N)N)NC(=O)[C@H](CCC(N)=O)NC(=O)[C@@H](NC(=O)[C@H](C)NC(=O)[C@@H]1CSSC[C@H](NC(=O)[C@@H](N)CCCCNC(=O)CC[C@H](NC(=O)CCCCCCCCCCCCCCCCCCC(=O)O)C(=O)O)C(=O)N[C@@H](CC(N)=O)C(=O)N[C@@H]([C@@H](C)O)C(=O)N[C@@H](C)C(=O)N[C@@H]([C@@H](C)O)C(=O)N1)[C@@H](C)O)C(=O)N1CCC[C@H]1C(=O)N[C@@H](CO)C(=O)N[C@@H](CO)C(=O)N[C@H](C(=O)N1CCC[C@H]1C(=O)N[C@H](C(=O)NCC(=O)N1CCC[C@H]1C(=O)N[C@@H](CC(N)=O)C(=O)N[C@H](C(=O)N[C@@H](Cc1ccc(O)cc1)C(N)=O)[C@@H](C)O)C(C)C)[C@@H](C)O
hAmylin-R funct. EC50 [1]: 0.071 nM
Ratio hCT/hAmylin funct. [2]: 4.9
hCTR funct. EC50 [2]: 0.345 nM

B2: N^ε1-[(4S)-4-carboxy-4-[[(4S)-4-carboxy-4-(19-carboxynonadecanoylamino)butanoyl]amino]butanoyl]-[Glu14,Arg17,Pro21,Pro27,Arg34]-h-amylin (peptide)
peptide: K([γGlu-γGlu-C20 diacid])CNTATCATQRLAEFLRHSSPNFGAIPSSTNVGRNTY-NH2
modifications: disulfide 2-7; N-terminus assumed
SMILES: CC[C@H](C)[C@H](NC(=O)[C@H](C)NC(=O)CNC(=O)[C@H](Cc1ccccc1)NC(=O)[C@H](CC(N)=O)NC(=O)[C@@H]1CCCN1C(=O)[C@H](CO)NC(=O)[C@H](CO)NC(=O)[C@H](Cc1c[nH]cn1)NC(=O)[C@H](CCCNC(=N)N)NC(=O)[C@H](CC(C)C)NC(=O)[C@H](Cc1ccccc1)NC(=O)[C@H](CCC(=O)O)NC(=O)[C@H](C)NC(=O)[C@H](CC(C)C)NC(=O)[C@H](CCCNC(=N)N)NC(=O)[C@H](CCC(N)=O)NC(=O)[C@@H](NC(=O)[C@H](C)NC(=O)[C@@H]1CSSC[C@H](NC(=O)[C@@H](N)CCCCNC(=O)CC[C@H](NC(=O)CC[C@H](NC(=O)CCCCCCCCCCCCCCCCCCC(=O)O)C(=O)O)C(=O)O)C(=O)N[C@@H](CC(N)=O)C(=O)N[C@@H]([C@@H](C)O)C(=O)N[C@@H](C)C(=O)N[C@@H]([C@@H](C)O)C(=O)N1)[C@@H](C)O)C(=O)N1CCC[C@H]1C(=O)N[C@@H](CO)C(=O)N[C@@H](CO)C(=O)N[C@H](C(=O)N[C@@H](CC(N)=O)C(=O)N[C@H](C(=O)NCC(=O)N[C@@H](CCCNC(=N)N)C(=O)N[C@@H](CC(N)=O)C(=O)N[C@H](C(=O)N[C@@H](Cc1ccc(O)cc1)C(N)=O)[C@@H](C)O)C(C)C)[C@@H](C)O
notes: also called compound 88
hAmylin-R funct. EC50 [1]: 0.773 nM
Ratio hCT/hAmylin funct. [2]: 8.5
hCTR funct. EC50 [2]: 6.55 nM

B6: N^ε1-[(4S)-4-carboxy-4-[[(4S)-4-carboxy-4-(19-carboxynonadecanoylamino)butanoyl]amino]butanoyl]-[Arg17,Pro21,Pro27,His34]-h-amylin (peptide)
peptide: K([γGlu-γGlu-C20 diacid])CNTATCATQRLANFLRHSSPNFGAIPSSTNVGHNTY-NH2
modifications: disulfide 2-7; N-terminus assumed
SMILES: CC[C@H](C)[C@H](NC(=O)[C@H](C)NC(=O)CNC(=O)[C@H](Cc1ccccc1)NC(=O)[C@H](CC(N)=O)NC(=O)[C@@H]1CCCN1C(=O)[C@H](CO)NC(=O)[C@H](CO)NC(=O)[C@H](Cc1c[nH]cn1)NC(=O)[C@H](CCCNC(=N)N)NC(=O)[C@H](CC(C)C)NC(=O)[C@H](Cc1ccccc1)NC(=O)[C@H](CC(N)=O)NC(=O)[C@H](C)NC(=O)[C@H](CC(C)C)NC(=O)[C@H](CCCNC(=N)N)NC(=O)[C@H](CCC(N)=O)NC(=O)[C@@H](NC(=O)[C@H](C)NC(=O)[C@@H]1CSSC[C@H](NC(=O)[C@@H](N)CCCCNC(=O)CC[C@H](NC(=O)CC[C@H](NC(=O)CCCCCCCCCCCCCCCCCCC(=O)O)C(=O)O)C(=O)O)C(=O)N[C@@H](CC(N)=O)C(=O)N[C@@H]([C@@H](C)O)C(=O)N[C@@H](C)C(=O)N[C@@H]([C@@H](C)O)C(=O)N1)[C@@H](C)O)C(=O)N1CCC[C@H]1C(=O)N[C@@H](CO)C(=O)N[C@@H](CO)C(=O)N[C@H](C(=O)N[C@@H](CC(N)=O)C(=O)N[C@H](C(=O)NCC(=O)N[C@@H](Cc1c[nH]cn1)C(=O)N[C@@H](CC(N)=O)C(=O)N[C@H](C(=O)N[C@@H](Cc1ccc(O)cc1)C(N)=O)[C@@H](C)O)C(C)C)[C@@H](C)O
notes: also called compound 86
hAmylin-R funct. EC50 [1]: 0.298 nM
Ratio hCT/hAmylin funct. [2]: 64.4
hCTR funct. EC50 [2]: 19.2 nM
